The values below come from patent US20040202655A1.

One may read the Kd as a measure of binding affinity in units of concentration. Read a low Kd as a tighter complex.

The target in test [1] is IGF1R extracellular domain (human) (UniProt P08069). The experiment in a line: SPR (BIAcore), IgG captured on protein A, IGF1R extracellular domain in flow.
For test [2] the target is unchanged. The experiment in a line: SPR (BIAcore), IgG captured on mouse anti-human IgG, IGF1R extracellular domain in flow. (In SPR one partner is held on a chip, and binding of the other changes the refractive index at the surface.)

B1: PINT-8A1 IgG (antibody, V domains shown)
VH: EVQLVQSGAEVKKPGESLTISCKGPGYNFFNYWIGWVRQMPGKGLEWMGIIYPTDSDTRYSPSFQGQVTISVDKSISTAYLQWSSLKASDTAMYYCARSIRYCPGGRCYSGYYGMDVWGQGTMVTVSS
VL: SELTQDPAVSVALGQTVRITCQGDSLRSYYASWYQQKPGQAPVLVIYGKNNRPSGIPDRFSGSSSGNTASLTITGAQAEDEADYYCNSRDSSGNHVVFGGGTKLTVLG
Consider B1, for which the Kd in test [1] is 0.109 nM; in test [2], 0.503 nM.

B2: PINT-9A2 IgG (antibody, V domains shown)
VH: QVQLVQSGAEVRKPGASVKVSCKTSGYTFRNYDINWVRQAPGQGLEWMGRISGHYGNTDHAQKFQGRFTMTKDTSTSTAYMELRSLTFDDTAVYYCARSQWNVDYWGRGTLVTVSS
VL: LNFMLTQPHSVSESPGKTVTISCTRSSGSIASNYVQWYQQRPGSSPTTVIFEDNRRPSGVPDRFSGSIDTSSNSASLTISGLKTEDEADYYCQSFDSTNLVVFGGGTKVTVLG
Turning to B2, the values for the Kd in test [1] and in test [2] were 0.24 nM and 0.138 nM, respectively.
